Measurements reported in paper PMC2553836, “Control of Jasmonate Biosynthesis and Senescence by miR319 Targets”.

Target: T1, TCP4 N-terminal fragment (pRSETC-TCP4-1, TCP4-N224) (Arabidopsis thaliana, UniProt Q8LPR5 1-224)
T1 sequence: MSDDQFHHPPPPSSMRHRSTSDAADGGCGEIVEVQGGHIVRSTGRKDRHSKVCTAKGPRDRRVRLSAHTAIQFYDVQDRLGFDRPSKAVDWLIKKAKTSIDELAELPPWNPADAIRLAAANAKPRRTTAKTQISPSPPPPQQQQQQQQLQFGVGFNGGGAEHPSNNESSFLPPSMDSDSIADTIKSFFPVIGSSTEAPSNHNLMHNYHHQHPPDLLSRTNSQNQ
Assay: EMSA; 20 mM HEPES-KOH pH 7.8, 100 mM KCl, 1 mM EDTA, 0.1% BSA, 10 ng herring sperm DNA, 10% glycerol, ~10 fmol probe, 5-100 ng protein in 10 ul, 30 min room temperature; 6% native gel, 0.5x TBE
Conditions: protein: recombinant; tags: His; chain copies: 2; label: 32P-dCTP (Klenow) as probe

B1: TCP4 consensus wild type (dsDNA)
DNA 1: AGATGGGGGACCACATAGATGT
DNA 2: ACATCTATGTGGTCCCCCATCT
Question: Does B1 bind?
Answer: binds
